Reference: US20250346639A1, “BACTERIOCIN POLYPEPTIDES, NUCLEIC ACIDS ENCODING SAME, AND METHODS OF USE THEREOF” (Syngulon SA, priority 2022, published 2025)

B1: Uberolysin A (protein, listed as Streptococcus uberis)
chain: SGTAKKVVDAIDKGAAAFVIISIISTVISAGALGAVSASADFIILTVKNYISRNLKAQAVIWLAGYTGIA
modifications: circularized via Npu split intein; Uberolysin A (UberA); Strain 42
notes: circular bacteriocin of Streptococcus uberis 42
B2: Bacteriocin YS111: putative circular bacteriocin of Streptococcus suis YS111; SEQ ID NO: 828 circularized with Npu split intein (protein, listed as Streptococcus suis)
chain: STVVNVILGAGTAVTILGIISSIASGGATTLLTVGWAGFKATVQRLAKQSMARAIAYVAAALGVPSAVA
modifications: circularized via Npu split intein; Strain YS111; Bacteriocin YS111
B3: Bacteriocin BCW 2997: putative circular bacteriocin of Listeria monocytogenes BCW 2997; SEQ ID NO: 818 circularized with Npu split intein (protein)
chain: SIKVYLKKQIKKKGRKAVIAWLAKEFGIPGGVAATVLNIVEAGGWATTILSILTAVGSGGLSLIAAAGKE
modifications: circularized via Npu split intein; Strain BCW 2997; Bacteriocin BCW 2997; Listeria monocytogenes
B4: Enterocin NKR-5-3B (protein, listed as Enterococcus faecium)
chain: SSYAAKKVIDIINTGSAVATIIALVTAVVGGGLITAGIVATAKSLIKKYGAKYAAAWLTANLGI
modifications: circularized via Npu split intein; Strain NKR-5-3; Enterocin NKR-5-3B
notes: circular bacteriocin of Enterococcus faecium NKR-5-3
B5: Leucocyclicin Q (protein)
chain: SKSLANTILGAIAVGNLASWLLALVPGPGWATKAALATAETIVKHEGKAAAIAWLVNQLGI
modifications: circularized via Npu split intein; Strain TK41401; Leucocyclicin Q; Leuconostoc mesenteroides
notes: circular bacteriocin of Leuconostoc mesenteroides TK41401
B6: Amylocyclicin (protein, listed as Bacillus amyloliquefaciens)
chain: STAAAKKAIDIIDAASTIASIISLIGIVTGAGAISYAIVATAKTMIKKYGKKYAAAWLASTLGI
modifications: circularized via Npu split intein; Strain FZB42; Amylocyclicin (Alc)
notes: circular bacteriocin of Bacillus amyloliquefaciens FZB42
B7: Enterocin AS-48 (protein, listed as Enterococcus faecalis)
chain: SIKAYLKKEIKKKGKRAVIAWMAKEFGIPAAVAGTVLNVVEAGGWVTTIVSILTAVGSGGLSLLAAAGRE
modifications: circularized via Npu split intein; Enterocin AS-48 (EntAS48); Strain 48
notes: circular bacteriocin of Enterococcus faecalis S-48
B8: DSM 15102: putative circular bacteriocin of Garciella nitratireducens DSM 15102; SEQ ID NO: 832 circularized with Npu split intein (protein, listed as Garciella nitratireducens)
chain: SMLGISTVAAKKVIDIIDTASTVATIISLIGVIVGVGGITAGLVTTAKAMIKKYGKKYATMWLA
modifications: circularized via Npu split intein; Bacteriocin DSM 15102; Strain DSM 15102
B9: Bacteriocin 3688STDY6124959: putative circular bacteriocin of Staphylococcus aureus 3688STDY6124959; SEQ ID NO: 814 circularized with Npu split intein (protein, listed as Staphylococcus aureus)
chain: STLGISSYAAKKAIDIIAAAGDVAAIVGLIGAVTGAGAIGAGILFTAKKLIKSYGKKYAAAWLT
modifications: circularized via Npu split intein; Bacteriocin 3688STDY6124959; Strain 3688STDY6124959
B10: Circularin A (protein, listed as Clostridium beijerinckii)
chain: SIASGGAGTLMTIGWATFKATVQKLAKQSMARAIAYVAGALGVQTAAATTIVNVILNAGTLVTVLGIIA
modifications: circularized via Npu split intein; Circularin A (CirA); ATCC 25752
notes: circular bacteriocin of Clostridium beijerinckii ATCC 25752

Assays:
L. lactis IL1403 = experiment: Antimicrobial activity (halo of inhibition on petri dishes) of cell-free produced, intein-circularized bacteriocins against indicator L. lactis IL1403; format: cell-based, Lactococcus lactis; set-up: key: +: Bacteriocins showing a halo of inhibition against at least one of the indicators were considered as positive; details: bacteriocins circularized with inteins; cell free production and overnight incubation at room temperature
Experimental: (§1) Recombinant vectors were stabilized and amplified in E. coli DH5a standard strain and used as templates for cell-free protein synthesis using PURExpress® in vitro Protein Synthesis Kit (New England Biolabs). All bacteriocins synthesized were tested on petri dishes for antimicrobial activity against an indicator strain. Bacteriocins showing a halo of inhibition against at least one of the indicators were considered as positive.
(§2) Following the same scheme as for GarML, different plasmids containing genes coding for recombinant proteins containing Npu IC and IN fused to the mature amino acid sequence of different known and hypothetical circular bacteriocins were synthesized. The circularization point for all of them was changed with respect to the native peptides so they all would start with a Ser in position 1 (Table 2.1). The Ssra tag was also added to the C-terminus. […] Plasmids synthesized were used as templates for cell free protein production. Antimicrobial activity of the peptides obtained after cell free production and overnight incubation at room temperature were tested against indicator L. lactis IL1403.

P. pentosaceus HELA = experiment: Antimicrobial activity (halo of inhibition on petri dishes) of cell-free produced, intein-circularized bacteriocins against indicator P. pentosaceus HELA; format: cell-based; set-up: key: +: Bacteriocins showing a halo of inhibition against at least one of the indicators were considered as positive; details: bacteriocins circularized with inteins; cell free production
Experimental: as §1, §2

L. inocua = experiment: Antimicrobial activity (halo of inhibition on petri dishes) of cell-free produced, intein-circularized bacteriocins against indicator L. inocua; format: cell-based; set-up: key: +: Bacteriocins showing a halo of inhibition against at least one of the indicators were considered as positive; details: bacteriocins circularized with inteins; cell free production
Experimental: as §1, §2

L. lactis = experiment: Controlling growth of contaminating L. lactis in a culture medium with a circular bacteriocin (Examples 5 and 6); format: cell-based
From the text: A polypeptide containing an amino acid sequence of a circular bacteriocin, for example Enterocin AS-48, flanked by a split intein is produced. The split intein is a conditionally active, pH-sensitive split intein, and is configured to circularize the bacteriocin when the pH is below 6.0. The polypeptide is introduced into a culture medium growing a microbial organism of interest, at pH 7.0. […] When a contaminating microbial species, L. lactis, is detected in the culture medium, the pH of the medium is reduced to below 6.0, which activates the split intein and causes the bacteriocin to circularize. Subsequently, the growth of the contaminating L. lactis in the culture medium is inhibited.
A microbial cell is genetically engineered with an expression vector encoding a circular bacteriocin, for example Leucocyclicin Q, flanked by a split intein. The genetically engineered microbial cell is introduced into a culture medium growing a microbial organism of interest. The microbial cell produces the bacteriocin in circularized form, and secretes it into the culture medium. Growth of a contaminating microbial species, L. lactis, is inhibited by the circular bacteriocin.

Molecule	Antimicrobial activity, Indicator L. lactis IL1403 (L. lactis IL1403)	further results
Gassericin A (SGASLGTAFAAILGVTLPAWALAAAGALGATAAIYWIADQFGIHLATGTARKLLDAMA; circularized via Npu split intein; Strain LA39; Gassericin A (GasA); listed as Lactobacillus gasseri) [circular bacteriocin of Lactobacillus gasseri LA39]	+	Antimicrobial activity, Indicator P. pentosaceus HELA (P. pentosaceus HELA): +; Antimicrobial activity, Indicator L. inocua (L. inocua): +
Bacteriocin NCTC 12958: putative circular bacteriocin of Streptococcus thermophilus NCTC 12958; SEQ ID NO: 854 circularized with Npu split intein (SAGGSIVDAFAIIAGITLPAWVAPVLAGFGVVSAIYWICGKFGIRLAPGWYQDIVDFV; circularized via Npu split intein; Bacteriocin NCTC 12958; Strain NCTC 12958; listed as Streptococcus thermophilus)	+	
Garvicin ML (SGAFTAAGGIMALIKKYAQKKLWKQLIAALVATGMAAGVAKTIVNAVSAGMDIATALSLF; circularized via Npu split intein; Garvicin ML (GarML); Strain DCC43; listed as Lactococcus garvieae) [circular bacteriocin of Lactococcus garvieae DCC43]	+	
Carnocyclin A (SLINAGLTVGSIISILGGVTVGLSGVFTAVKAAIAKQGIKKAIQLLVAYGIAQGTAEKVV; circularized via Npu split intein; Carnocyclin A; Strain UAL307; listed as Carnobacterium maltaromaticum) [circular bacteriocin of Carnobacterium maltaromaticum UAL307]	+	
Paracyclicin P (SAGGSLAGAFSVVAGVTLPAWIVPIATAFGAVSAIYFIANKLGIHLAPGWYQDMVNYV; circularized via Npu split intein; Paracyclicin P (ParP); subsp. Paracasei JCM 8130/ DSM 5622; listed as Lactobacillus paracesei) [circular bacteriocin of Lactobacillus paracasei JCM 8130/DSM 5622]	+	
Plantaricyclin A (SLTQKALDLLSAGSSLGTVAAAVLGVTLPAWAVAAAGALGGTAAIVWIAKQFGVHLTT; circularized via Npu split intein; Plantaricyclin A (PlcA); Strain NI326; listed as Lactobacillus plantarum) [circular bacteriocin of Lactobacillus plantarum NI326]	+	
B1		Antimicrobial activity, Indicator L. inocua (L. inocua): +
B2	+	
B3	+	
B4	+	Antimicrobial activity, Indicator L. inocua (L. inocua): +
B5	+	growth of contaminating L. lactis in culture medium (L. lactis; Example 6, bacteriocin secreted by genetically engineered microbial cell): inhibited
B6	+	
B7	+	antimicrobial activity of non-circularized bacteriocin in culture medium (L. lactis; Example 5, pH-sensitive split intein, pH 7.0): does not exhibit antimicrobial activity; growth of contaminating L. lactis in culture medium (L. lactis; Example 5, pH-sensitive split intein, pH reduced to below 6.0): inhibited
B8	+	
B9	+	
B10	+	
